Data published in US20210130436A1 (published 2021).
Positions count from the first letter of the chain named. Names and notes keep the numbering of the source.

T1: TIGIT (Homo sapiens (Human), UniProt Q495A1 22-244)
T1 sequence: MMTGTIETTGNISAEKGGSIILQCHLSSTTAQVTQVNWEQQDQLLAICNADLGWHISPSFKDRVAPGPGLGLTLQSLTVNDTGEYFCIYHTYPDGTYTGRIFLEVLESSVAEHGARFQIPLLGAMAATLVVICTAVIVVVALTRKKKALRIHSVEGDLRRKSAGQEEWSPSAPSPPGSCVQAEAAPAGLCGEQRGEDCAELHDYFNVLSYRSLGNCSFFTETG

T2: CD226 (Homo sapiens (Human), UniProt Q15762 19-336)
T2 sequence: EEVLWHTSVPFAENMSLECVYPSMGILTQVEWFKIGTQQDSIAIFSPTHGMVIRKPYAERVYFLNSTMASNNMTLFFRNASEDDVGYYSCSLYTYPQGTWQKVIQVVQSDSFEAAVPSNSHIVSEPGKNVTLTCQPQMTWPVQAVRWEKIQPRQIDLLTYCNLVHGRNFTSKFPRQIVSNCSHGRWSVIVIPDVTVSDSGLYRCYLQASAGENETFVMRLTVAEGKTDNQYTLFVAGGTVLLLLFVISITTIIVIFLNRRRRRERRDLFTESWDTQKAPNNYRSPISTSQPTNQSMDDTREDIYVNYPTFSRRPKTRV

T3: CD96 (UniProt P40200 22-585, limits assumed)
T3 construct: whole, on cells
T3 sequence (looked up): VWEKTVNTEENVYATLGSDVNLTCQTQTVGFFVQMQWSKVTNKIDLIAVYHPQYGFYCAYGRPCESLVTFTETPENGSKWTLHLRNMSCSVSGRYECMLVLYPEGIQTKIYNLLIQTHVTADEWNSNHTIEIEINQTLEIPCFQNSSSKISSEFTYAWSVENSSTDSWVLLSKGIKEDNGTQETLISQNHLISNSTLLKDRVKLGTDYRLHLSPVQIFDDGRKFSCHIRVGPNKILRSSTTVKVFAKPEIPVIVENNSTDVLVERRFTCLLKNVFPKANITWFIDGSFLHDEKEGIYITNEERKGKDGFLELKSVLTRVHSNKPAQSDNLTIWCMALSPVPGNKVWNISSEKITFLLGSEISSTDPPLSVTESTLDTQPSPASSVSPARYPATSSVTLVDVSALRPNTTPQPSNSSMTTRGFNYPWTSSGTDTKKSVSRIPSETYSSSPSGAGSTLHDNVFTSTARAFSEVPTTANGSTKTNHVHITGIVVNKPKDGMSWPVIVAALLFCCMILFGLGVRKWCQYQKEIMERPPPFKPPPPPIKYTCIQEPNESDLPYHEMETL

B1: variant CD80 IgV-Fc E35D/L97R (Fc fusion, not shown: a dimerising Fc or GST)
chain: VIHVTKEVKEVATLSCGHNVSVEELAQTRIYWQKDKKMVLTMMSGDMNIWPEYKNRTIFDITNNLSIVILALRPSDEGTYECVVLKYEKDAFKREHRAEVTLSVKAD
B2: variant CD80 IgV-Fc E35D/N48K/L72V (Fc fusion, not shown: a dimerising Fc or GST)
chain: B1 chain with N48K, L72V, R97L
B3: variant CD80 IgV-Fc E24D/Q33L/E35D/M47V/K54R/L85Q (Fc fusion, not shown: a dimerising Fc or GST)
chain: B1 chain with E24D, Q33L, M47V, K54R, L85Q, R97L
B4: variant CD80 IgV-Fc E35D/M47V/N48K/L85M (Fc fusion, not shown: a dimerising Fc or GST)
chain: B1 chain with M47V, N48K, L85M, R97L
B5: variant CD80 IgV-Fc H18Y/E35D/M47V/N48K (Fc fusion, not shown: a dimerising Fc or GST)
chain: B1 chain with H18Y, M47V, N48K, R97L
B6: variant CD155 IgV-Fc S52L (Fc fusion, not shown: a dimerising Fc or GST)
chain: WPPPGTGDVVVQAPTQVPGFLGDSVTLPCYLQVPNMEVTHVSQLTWARHGELGSMAVFHQTQGPSYSESKRLEFVAARLGAELRNASLRMFGLRVEDEGNYTCLFVTFPQGSRSVDIWLRVL
B7: variant CD155 IgV-Fc S42W/S52R/Q62Y/L104Q (Fc fusion, not shown: a dimerising Fc or GST)
chain: B6 chain with S42W, L52R, Q62Y, L104Q
B8: variant CD155 IgV-Fc S42W (Fc fusion, not shown: a dimerising Fc or GST)
chain: B6 chain with S42W, L52S
B9: variant CD155 IgV-Fc T45Q/S52L/V57L/L104E (Fc fusion, not shown: a dimerising Fc or GST)
chain: B6 chain with T45Q, V57L, L104E
B10: variant CD155 IgV-Fc Q62F (Fc fusion, not shown: a dimerising Fc or GST)
chain: B6 chain with L52S, Q62F
B11: variant CD155 IgV-Fc S52R/Q62F/L104Q/G111R (Fc fusion, not shown: a dimerising Fc or GST)
chain: B6 chain with L52R, Q62F, L104Q, G111R
B12: variant CD155 IgV-Fc S42A/L104Q/G111R (Fc fusion, not shown: a dimerising Fc or GST)
chain: B6 chain with S42A, L52S, L104Q, G111R
B13: variant CD155 IgV-Fc S52W/L104E (Fc fusion, not shown: a dimerising Fc or GST)
chain: B6 chain with L52W, L104E
B14: variant CD155 IgV-Fc Q62Y (Fc fusion, not shown: a dimerising Fc or GST)
chain: B6 chain with L52S, Q62Y
B15: variant CD155 IgV-Fc S42A/S52Q/L104Q/G111R (Fc fusion, not shown: a dimerising Fc or GST)
chain: B6 chain with S42A, L52Q, L104Q, G111R
B16: variant CD155 IgV-Fc S42A/S52L/L104E/G111R (Fc fusion, not shown: a dimerising Fc or GST)
chain: B6 chain with S42A, L104E, G111R
B17: variant CD155 IgV-Fc S42C (Fc fusion, not shown: a dimerising Fc or GST)
chain: B6 chain with S42C, L52S
B18: variant CD155 IgV-Fc S52M (Fc fusion, not shown: a dimerising Fc or GST)
chain: B6 chain with L52M
B19: variant CD155 IgV-Fc S52E (Fc fusion, not shown: a dimerising Fc or GST)
chain: B6 chain with L52E
B20: variant CD155 IgV-Fc S52M/Q62Y (Fc fusion, not shown: a dimerising Fc or GST)
chain: B6 chain with L52M, Q62Y
B21: variant CD155 IgV-Fc S42L/S52Q/L104E (Fc fusion, not shown: a dimerising Fc or GST)
chain: B6 chain with S42L, L52Q, L104E
B22: variant CD155 IgV-Fc S42L/S52L/Q62F/L104Q (Fc fusion, not shown: a dimerising Fc or GST)
chain: B6 chain with S42L, Q62F, L104Q
B23: variant CD155 IgV-Fc S52W (Fc fusion, not shown: a dimerising Fc or GST)
chain: B6 chain with L52W
B24: variant CD155 IgV-Fc S42N/L104Q/G111R (Fc fusion, not shown: a dimerising Fc or GST)
chain: B6 chain with S42N, L52S, L104Q, G111R
B25: variant CD155 IgV-Fc S52M/L104Q (Fc fusion, not shown: a dimerising Fc or GST)
chain: B6 chain with L52M, L104Q
B26: variant CD155 IgV-Fc S42W/S52Q/V57L/Q62Y (Fc fusion, not shown: a dimerising Fc or GST)
chain: B6 chain with S42W, L52Q, V57L, Q62Y
B27: variant CD155 IgV-Fc S42N/S52Q/Q62F (Fc fusion, not shown: a dimerising Fc or GST)
chain: B6 chain with S42N, L52Q, Q62F
B28: variant CD155 IgV-Fc S42Q (Fc fusion, not shown: a dimerising Fc or GST)
chain: B6 chain with S42Q, L52S
B29: variant CD155 IgV-Fc T45Q/S52L/L104E/G111R (Fc fusion, not shown: a dimerising Fc or GST)
chain: B6 chain with T45Q, L104E, G111R
B30: variant CD155 IgV-Fc S52Q (Fc fusion, not shown: a dimerising Fc or GST)
chain: B6 chain with L52Q
B31: variant CD155 IgV-Fc Q62F/L104E/G111R (Fc fusion, not shown: a dimerising Fc or GST)
chain: B6 chain with L52S, Q62F, L104E, G111R
B32: WT CD80 ECD-Fc (Fc fusion, not shown: a dimerising Fc or GST)
chain: VIHVTKEVKEVATLSCGHNVSVEELAQTRIYWQKEKKMVLTMMSGDMNIWPEYKNRTIFDITNNLSIVILALRPSDEGTYECVVLKYEKDAFKREHLAEVTLSVKADFPTPSISDFEIPTSNIRRIICSTSGGFPEPHLSWLENGEELNAINTTVSQDPETELYAVSSKLDFNMTTNHSFMCLIKYGHLRVNQTFNWNTTKQEHFPDN
notes: Wild-type control

What was measured:
human PD-L1 on CHO cells = target: T4, human PD-L1 on CHO cells (human, UniProt Q9NZQ7 19-290); experiment: flow cytometry, CHO cells stably expressing PD-L1
T4 construct: whole, on cells; CHO cells stably expressing PD-L1; also called huPD-L1
T4 sequence (Q9NZQ7 19-290): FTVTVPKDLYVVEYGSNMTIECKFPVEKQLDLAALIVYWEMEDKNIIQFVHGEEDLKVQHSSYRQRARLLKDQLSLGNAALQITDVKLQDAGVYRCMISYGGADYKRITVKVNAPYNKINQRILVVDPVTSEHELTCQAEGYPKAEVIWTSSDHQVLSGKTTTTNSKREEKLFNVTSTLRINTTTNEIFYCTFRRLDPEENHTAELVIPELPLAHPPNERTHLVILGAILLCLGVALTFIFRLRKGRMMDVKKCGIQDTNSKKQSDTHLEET

[1] = target: T5, CD28 on Jurkat/IL2 reporter cells (human, UniProt P10747 19-220); experiment: flow cytometry, Jurkat cells (CD28)
T5 construct: whole, on cells; Endogenous CD28 of Jurkat cells; also called Jurkats (CD28)

[2] = target: T6, human PD-L1 (full-length, expressed on CHO cells) (human, UniProt Q9NZQ7 19-290); experiment: flow cytometry, CHO cells expressing huPD-L1, PE anti-human Fc
T6 construct: also called huPD-L1; CD274
T6 sequence (Q9NZQ7 19-290): as above

[3] = target: T7, human CTLA4 (full-length, expressed on CHO cells) (human, UniProt P16410 36-223); experiment: flow cytometry, CHO cells expressing huCTLA4, PE anti-human Fc
T7 construct: also called huCTLA4
T7 sequence (P16410 36-223): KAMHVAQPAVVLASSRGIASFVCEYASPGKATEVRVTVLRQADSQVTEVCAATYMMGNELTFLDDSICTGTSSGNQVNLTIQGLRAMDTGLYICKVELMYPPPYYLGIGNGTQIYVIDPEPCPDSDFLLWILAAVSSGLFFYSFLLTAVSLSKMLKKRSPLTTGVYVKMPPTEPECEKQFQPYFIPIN

TIGIT = target: T1, TIGIT; experiment: flow cytometry, Fc fusion at 100 nM, TIGIT-transfected cells
CD226 = target: T2, CD226; experiment: flow cytometry, Fc fusion at 100 nM, CD226-transfected cells
CD96 = target: T3, CD96; experiment: flow cytometry, Fc fusion at 100 nM, CD96-transfected cells
human CD28 = human CD28 (human, UniProt P10747 19-220); experiment: flow cytometry, Jurkat cells (CD28)

Row | Binder | MFI at 100 nM (TIGIT) | MFI at 100 nM (CD226) | MFI at 100 nM (CD96) | other results
1 | B1 |  |  |  | MFI at 33.3 nM (human PD-L1 on CHO cells): 2610 MFI; MFI at 33.3 nM [1]: 44.6 MFI
2 | B2 |  |  |  | MFI at 33.3 nM (human PD-L1 on CHO cells): 3030 MFI; MFI at 33.3 nM [1]: 582 MFI
3 | B3 |  |  |  | MFI at 33.3 nM [2]: 67100 MFI; MFI at 33.3 nM [3]: 311000 MFI
4 | B4 |  |  |  | MFI at 33.3 nM (human PD-L1 on CHO cells): 5660 MFI; MFI at 33.3 nM [1]: 413 MFI
5 | B5 |  |  |  | MFI at 33.3 nM (human PD-L1 on CHO cells): 6460 MFI; MFI at 33.3 nM [1]: 841 MFI
6 | B6 | 2220 MFI | 2680 MFI |  | 
7 | B7 | 1920 MFI | 2300 MFI | 1760 MFI | 
8 | B8 | 2430 MFI | 2130 MFI | 2560 MFI | 
9 | B9 | 2860 MFI | 5940 MFI | 1530 MFI | 
10 | B10 | 2210 MFI | 2570 MFI | 2760 MFI | 
11 | B11 | 2970 MFI | 3170 MFI | 2360 MFI | 
12 | B12 | 1920 MFI | 1900 MFI | 1700 MFI | 
13 | B13 | 1940 MFI | 1910 MFI | 1630 MFI | 
14 | B14 | 2530 MFI | 2620 MFI | 1830 MFI | 
15 | B15 | 1810 MFI | 2160 MFI | 1640 MFI | 
16 | B16 | 2260 MFI | 1890 MFI | 1610 MFI | 

Row | Binder | MFI at 100 nM (TIGIT) | MFI at 100 nM (CD226) | MFI at 100 nM (CD96) | other results
17 | B17 | 1910 MFI | 2100 MFI | 1590 MFI | 
18 | B18 | 1870 MFI | 1900 MFI | 1610 MFI | 
19 | B19 | 2660 MFI | 2600 MFI | 1800 MFI | 
20 | B20 | 1930 MFI | 2000 MFI | 1650 MFI | 
21 | B21 | 1950 MFI | 6470 MFI | 1700 MFI | 
22 | B22 | 2020 MFI | 2640 MFI | 2320 MFI | 
23 | B23 | 1990 MFI | 2040 MFI | 1710 MFI | 
24 | B24 | 2430 MFI | 2310 MFI | 1960 MFI | 
25 | B25 | 2670 MFI | 2250 MFI | 1630 MFI | 
26 | B26 | 1960 MFI | 2140 MFI | 1700 MFI | 
27 | B27 | 2400 MFI | 2150 MFI | 1740 MFI | 
28 | B28 | 2070 MFI | 2230 MFI | 2140 MFI | 
29 | B29 | 2290 MFI | 2390 MFI | 1580 MFI | 
30 | B30 | 2290 MFI | 2020 MFI | 1820 MFI | 
31 | B31 | 1970 MFI | 2040 MFI | 1520 MFI | 
32 | B32 |  |  |  | MFI at 33.3 nM (human CD28): 31 MFI
